# Source: patent US20170360796A1, “BTK INHIBITOR COMBINATIONS AND DOSING REGIMEN” (PHARMACYCLICS LLC, priority 2014, published 2017)
# Legend:
# [1] = system: patients with relapsed/refractory CLL and related diseases; assay: Phase 1b/2 study of ibrutinib combined with ofatumumab (NCT01217749): efficacy; type: in vivo, human; conditions: group 3, ofatumumab lead-in before initiating ibrutinib
# From the text: Key eligibility criteria also included failure of ≧2 prior therapies including a nucleoside analogue (unless contraindicated); ≧10% expression of CD20 on CLL/SLL cells by flow cytometry; ECOG performance status ≦2; and adequate end-organ function.
# This phase 1 b/2, single-center, open-label, sequential-group study was approved by the institutional review board and conducted in accordance with the principles of the Declaration of Helsinki and the International Conference on Harmonization Guidelines for Good Clinical Practice.
# [2] = system: patients with relapsed/refractory CLL; conditions: single agent; cited from earlier work
# [3] = system: B-cell lines including CLL cells; conditions: compared with rituximab; cited from earlier work
substance,measurement,setting,value
ofatumumab: anti-CD20 monoclonal antibody that binds to an epitope distinct from that for rituximab,patients who progressed (PD) on ofatumumab monotherapy,[1],17%
same,Major bleeding events ≧ grade 3,[2],1.6%
same,peripheral sensory neuropathy (grade 1 and 2),[2],13%
same,complement-dependent cytotoxicity and NK-cell ADCC,[3],more potent
